# B1: GpH7-A5/GpH7-B3 variant P271_02A/GpL16-k0 (antibody, human IgG1, kappa)
# heavy 1: not shown
# heavy 2: not shown
# light: DIVMTQSPLSLPVTPGEPASISCQASESLVHSNRNTYLHWYLQKPGQSPQLLIYKVSNRFSGVPDRFSGSGSGTDFTLKISRVEAEDVGVYYCSQNTHVPPTFGQGTKVEIERTVAAPSVFIFPPSDEQLKSGTASVVCLLNNFYPREAKVQWKVDNALQSGNSQESVTEQDSKDSTYSLSSTLTLSKADYEKHKVYACEVTHQGLSSPVTKSFNRGEC
# notes: heterodimerized IgG1, mutation in one H chain; also called He Ab
# B2: GpH7-A5/GpH7-B3 variant I336_01G/GpL16-k0 (antibody, human IgG1, kappa)
# heavy 1: not shown
# heavy 2: not shown
# light: B1 light
# notes: as for B1
# B3: GpH7-A5/GpH7-B3 variant E333_13S/GpL16-k0 (antibody, human IgG1, kappa)
# heavy 1: not shown
# heavy 2: not shown
# light: B1 light
# notes: as for B1
# B4: GpH7-A5/GpH7-B3 variant P271_03V/GpL16-k0 (antibody, human IgG1, kappa)
# heavy 1: not shown
# heavy 2: not shown
# light: B1 light
# notes: as for B1
# B5: GpH7-A5/GpH7-B3 variant E269_08L/GpL16-k0 (antibody, human IgG1, kappa)
# heavy 1: not shown
# heavy 2: not shown
# light: B1 light
# notes: as for B1
# B6: GpH7-A5/GpH7-B3 variant K326_16H/GpL16-k0 (antibody, human IgG1, kappa)
# heavy 1: not shown
# heavy 2: not shown
# light: B1 light
# notes: as for B1
# B7: GpH7-A5/GpH7-B3 variant E333_01G/GpL16-k0 (antibody, human IgG1, kappa)
# heavy 1: not shown
# heavy 2: not shown
# light: B1 light
# notes: as for B1
# B8: GpH7-A5/GpH7-B3 variant A330_09D/GpL16-k0 (antibody, human IgG1, kappa)
# heavy 1: not shown
# heavy 2: not shown
# light: B1 light
# notes: as for B1
# B9: GpH7-A5/GpH7-B3 variant I336_04F/GpL16-k0 (antibody, human IgG1, kappa)
# heavy 1: not shown
# heavy 2: not shown
# light: B1 light
# notes: as for B1
# B10: GpH7-A5/GpH7-B3 variant E269_15Y/GpL16-k0 (antibody, human IgG1, kappa)
# heavy 1: not shown
# heavy 2: not shown
# light: B1 light
# notes: as for B1
# B11: GpH7-A5/GpH7-B3 variant K326_15Y/GpL16-k0 (antibody, human IgG1, kappa)
# heavy 1: not shown
# heavy 2: not shown
# light: B1 light
# notes: as for B1
# B12: GpH7-A5/GpH7-B3 variant I336_03V/GpL16-k0 (antibody, human IgG1, kappa)
# heavy 1: not shown
# heavy 2: not shown
# light: B1 light
# notes: as for B1
# B13: GpH7-A5/GpH7-B3 variant A330_08L/GpL16-k0 (antibody, human IgG1, kappa)
# heavy 1: not shown
# heavy 2: not shown
# light: B1 light
# notes: as for B1
# B14: GpH7-A5/GpH7-B3 variant E269_06M/GpL16-k0 (antibody, human IgG1, kappa)
# heavy 1: not shown
# heavy 2: not shown
# light: B1 light
# notes: as for B1
# B15: GpH7-A5/GpH7-B3 variant E269_04F/GpL16-k0 (antibody, human IgG1, kappa)
# heavy 1: not shown
# heavy 2: not shown
# light: B1 light
# notes: as for B1
# B16: GpH7-A5/GpH7-B3 variant I336_10E/GpL16-k0 (antibody, human IgG1, kappa)
# heavy 1: not shown
# heavy 2: not shown
# light: B1 light
# notes: as for B1
# B17: GpH7-A5/GpH7-B3 variant I336_06M/GpL16-k0 (antibody, human IgG1, kappa)
# heavy 1: not shown
# heavy 2: not shown
# light: B1 light
# notes: as for B1
# B18: GpH7-A5/GpH7-B3 variant A330_14T/GpL16-k0 (antibody, human IgG1, kappa)
# heavy 1: not shown
# heavy 2: not shown
# light: B1 light
# notes: as for B1
# B19: GpH7-A5/GpH7-B3 variant K334_10E/GpL16-k0 (antibody, human IgG1, kappa)
# heavy 1: not shown
# heavy 2: not shown
# light: B1 light
# notes: as for B1
# B20: GpH7-A5/GpH7-B3 variant I336_02A/GpL16-k0 (antibody, human IgG1, kappa)
# heavy 1: not shown
# heavy 2: not shown
# light: B1 light
# notes: as for B1
# B21: GpH7-A5/GpH7-B3 variant A327_09D/GpL16-k0 (antibody, human IgG1, kappa)
# heavy 1: not shown
# heavy 2: not shown
# light: B1 light
# notes: as for B1
# B22: GpH7-A5/GpH7-B3 variant K326_14T/GpL16-k0 (antibody, human IgG1, kappa)
# heavy 1: not shown
# heavy 2: not shown
# light: B1 light
# notes: as for B1
# B23: GpH7-A5/GpH7-B3 variant I336_18N/GpL16-k0 (antibody, human IgG1, kappa)
# heavy 1: not shown
# heavy 2: not shown
# light: B1 light
# notes: as for B1
# B24: GpH7-A5/GpH7-B3 variant G236_20W/GpL16-k0 (antibody, human IgG1, kappa)
# heavy 1: not shown
# heavy 2: not shown
# light: B1 light
# notes: as for B1
# B25: GpH7-B3 variant P271_12R/GpL16-k0 (antibody, human IgG1, kappa)
# heavy: not shown
# light: B1 light
# notes: homodimerized IgG1, mutation in both H chains; also called Ho Ab
# B26: GpH7-B3 variant S298_18N/GpL16-k0 (antibody, human IgG1, kappa)
# heavy: not shown
# light: B1 light
# notes: as for B25
# B27: GpH7-B3 variant S337_02A/GpL16-k0 (antibody, human IgG1, kappa)
# heavy: not shown
# light: B1 light
# notes: as for B25
# B28: GpH7-B3 variant Q295_07I/GpL16-k0 (antibody, human IgG1, kappa)
# heavy: not shown
# light: B1 light
# notes: as for B25
# B29: GpH7-B3 variant Q295_03V/GpL16-k0 (antibody, human IgG1, kappa)
# heavy: not shown
# light: B1 light
# notes: as for B25
# B30: GpH7-B3 variant S337_03V/GpL16-k0 (antibody, human IgG1, kappa)
# heavy: not shown
# light: B1 light
# notes: as for B25
# B31: GpH7-B3 variant S324_02A/GpL16-k0 (antibody, human IgG1, kappa)
# heavy: not shown
# light: B1 light
# notes: as for B25
# B32: GpH7-B3 variant S267_01G/GpL16-k0 (antibody, human IgG1, kappa)
# heavy: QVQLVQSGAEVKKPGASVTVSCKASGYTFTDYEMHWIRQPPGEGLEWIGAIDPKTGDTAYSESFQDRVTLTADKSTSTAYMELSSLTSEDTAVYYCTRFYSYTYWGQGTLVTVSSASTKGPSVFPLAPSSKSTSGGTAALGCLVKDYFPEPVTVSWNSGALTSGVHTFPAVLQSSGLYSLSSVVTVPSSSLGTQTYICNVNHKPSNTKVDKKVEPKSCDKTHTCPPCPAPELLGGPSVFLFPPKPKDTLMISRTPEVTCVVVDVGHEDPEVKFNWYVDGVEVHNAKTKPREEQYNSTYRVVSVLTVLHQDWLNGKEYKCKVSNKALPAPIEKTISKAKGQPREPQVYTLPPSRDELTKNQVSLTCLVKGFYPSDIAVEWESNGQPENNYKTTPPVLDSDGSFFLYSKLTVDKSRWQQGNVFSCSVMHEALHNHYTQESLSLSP
# light: B1 light
# notes: as for B25
# B33: GpH7-B3 variant S267_03V/GpL16-k0 (antibody, human IgG1, kappa)
# heavy: not shown
# light: B1 light
# notes: as for B25
# B34: GpH7-B3 variant Q295_05P/GpL16-k0 (antibody, human IgG1, kappa)
# heavy: not shown
# light: B1 light
# notes: as for B25
# B35: GpH7-B3 variant S298_08L/GpL16-k0 (antibody, human IgG1, kappa)
# heavy: not shown
# light: B1 light
# notes: as for B25
# B36: GpH7-B3 variant S267_02A/GpL16-k0 (antibody, human IgG1, kappa)
# heavy: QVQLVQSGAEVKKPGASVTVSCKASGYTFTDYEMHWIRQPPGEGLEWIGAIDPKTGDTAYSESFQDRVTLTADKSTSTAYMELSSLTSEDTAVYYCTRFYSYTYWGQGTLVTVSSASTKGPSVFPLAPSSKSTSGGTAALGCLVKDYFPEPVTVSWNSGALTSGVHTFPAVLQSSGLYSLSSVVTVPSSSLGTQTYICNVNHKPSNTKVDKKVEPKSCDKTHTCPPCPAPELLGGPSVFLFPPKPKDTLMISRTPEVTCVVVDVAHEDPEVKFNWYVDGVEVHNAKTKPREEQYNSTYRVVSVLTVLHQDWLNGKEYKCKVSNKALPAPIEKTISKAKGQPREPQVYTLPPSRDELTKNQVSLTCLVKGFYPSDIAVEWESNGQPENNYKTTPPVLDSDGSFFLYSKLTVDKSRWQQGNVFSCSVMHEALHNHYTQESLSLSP
# light: B1 light
# notes: as for B25
# B37: GpH7-B3 variant S298_07I/GpL16-k0 (antibody, human IgG1, kappa)
# heavy: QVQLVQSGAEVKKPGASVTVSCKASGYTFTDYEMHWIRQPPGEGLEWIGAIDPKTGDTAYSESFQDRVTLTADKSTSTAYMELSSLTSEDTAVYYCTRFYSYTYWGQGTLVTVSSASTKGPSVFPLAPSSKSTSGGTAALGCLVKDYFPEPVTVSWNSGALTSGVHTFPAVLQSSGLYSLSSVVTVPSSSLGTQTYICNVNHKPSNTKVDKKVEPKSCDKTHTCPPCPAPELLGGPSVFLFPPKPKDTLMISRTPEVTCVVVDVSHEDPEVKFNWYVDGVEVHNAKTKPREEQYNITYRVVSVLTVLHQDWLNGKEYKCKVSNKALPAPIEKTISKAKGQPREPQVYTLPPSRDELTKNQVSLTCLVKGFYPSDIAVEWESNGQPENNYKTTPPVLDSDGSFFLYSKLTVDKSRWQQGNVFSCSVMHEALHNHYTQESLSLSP
# light: B1 light
# notes: as for B25
# B38: GpH7-B3 variant S267_09D/GpL16-k0 (antibody, human IgG1, kappa)
# heavy: not shown
# light: B1 light
# notes: as for B25
# B39: GpH7-B3 variant S324_19Q/GpL16-k0 (antibody, human IgG1, kappa)
# heavy: not shown
# light: B1 light
# notes: as for B25
# B40: GpH7-B3 variant Q295_14T/GpL16-k0 (antibody, human IgG1, kappa)
# heavy: not shown
# light: B1 light
# notes: as for B25
# B41: GpH7-B3 variant S298_03V/GpL16-k0 (antibody, human IgG1, kappa)
# heavy: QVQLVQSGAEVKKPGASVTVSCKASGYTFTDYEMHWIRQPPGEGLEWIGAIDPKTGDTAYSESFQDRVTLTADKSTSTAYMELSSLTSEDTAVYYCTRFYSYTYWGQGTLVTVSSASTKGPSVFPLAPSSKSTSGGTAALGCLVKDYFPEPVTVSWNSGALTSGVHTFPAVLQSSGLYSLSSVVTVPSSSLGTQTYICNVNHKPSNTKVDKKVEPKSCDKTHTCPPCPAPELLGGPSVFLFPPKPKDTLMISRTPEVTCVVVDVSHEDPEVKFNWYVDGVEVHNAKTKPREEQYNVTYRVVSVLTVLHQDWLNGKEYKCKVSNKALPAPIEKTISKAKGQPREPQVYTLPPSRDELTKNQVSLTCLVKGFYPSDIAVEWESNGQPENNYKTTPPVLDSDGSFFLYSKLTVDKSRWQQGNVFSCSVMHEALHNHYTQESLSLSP
# light: B1 light
# notes: as for B25
# B42: GpH7-B3 variant S298_10E/GpL16-k0 (antibody, human IgG1, kappa)
# heavy: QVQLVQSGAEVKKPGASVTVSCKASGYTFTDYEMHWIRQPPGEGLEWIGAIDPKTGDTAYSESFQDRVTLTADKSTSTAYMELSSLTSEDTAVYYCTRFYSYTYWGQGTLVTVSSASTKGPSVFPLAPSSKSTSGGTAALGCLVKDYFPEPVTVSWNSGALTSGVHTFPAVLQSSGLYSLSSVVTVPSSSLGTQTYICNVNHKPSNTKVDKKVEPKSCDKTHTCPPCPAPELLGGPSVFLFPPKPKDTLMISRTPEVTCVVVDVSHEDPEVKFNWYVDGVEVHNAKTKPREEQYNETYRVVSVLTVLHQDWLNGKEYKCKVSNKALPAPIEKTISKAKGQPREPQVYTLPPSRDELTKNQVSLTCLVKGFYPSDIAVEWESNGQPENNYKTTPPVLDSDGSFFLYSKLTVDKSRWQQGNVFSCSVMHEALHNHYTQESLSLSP
# light: B1 light
# notes: as for B25
# B43: GpH7-B3 variant S298_19Q/GpL16-k0 (antibody, human IgG1, kappa)
# heavy: not shown
# light: B1 light
# notes: as for B25
# B44: GpH7-B3 variant P271_13S/GpL16-k0 (antibody, human IgG1, kappa)
# heavy: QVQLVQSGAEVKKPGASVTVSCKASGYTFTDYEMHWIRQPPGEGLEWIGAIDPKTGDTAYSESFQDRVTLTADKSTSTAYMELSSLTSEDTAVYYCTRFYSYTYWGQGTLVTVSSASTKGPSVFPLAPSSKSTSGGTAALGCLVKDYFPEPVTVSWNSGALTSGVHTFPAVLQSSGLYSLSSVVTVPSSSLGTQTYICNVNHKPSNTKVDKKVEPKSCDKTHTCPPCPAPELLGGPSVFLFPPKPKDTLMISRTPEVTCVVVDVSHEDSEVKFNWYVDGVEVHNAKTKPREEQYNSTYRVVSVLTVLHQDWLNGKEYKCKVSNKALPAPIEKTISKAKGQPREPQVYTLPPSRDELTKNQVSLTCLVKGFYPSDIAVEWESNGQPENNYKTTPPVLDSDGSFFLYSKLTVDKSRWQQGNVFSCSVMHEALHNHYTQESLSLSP
# light: B1 light
# notes: as for B25
# B45: GpH7-B3 variant S239_01G/GpL16-k0 (antibody, human IgG1, kappa)
# heavy: not shown
# light: B1 light
# notes: as for B25
# B46: GpH7-B3 variant Q295_18N/GpL16-k0 (antibody, human IgG1, kappa)
# heavy: not shown
# light: B1 light
# notes: as for B25
# B47: GpH7-B3 variant Q295_02A/GpL16-k0 (antibody, human IgG1, kappa)
# heavy: not shown
# light: B1 light
# notes: as for B25
# B48: GpH7-B3 variant S324_20W/GpL16-k0 (antibody, human IgG1, kappa)
# heavy: not shown
# light: B1 light
# notes: as for B25
# B49: GpH7-B3 variant P271_20W/GpL16-k0 (antibody, human IgG1, kappa)
# heavy: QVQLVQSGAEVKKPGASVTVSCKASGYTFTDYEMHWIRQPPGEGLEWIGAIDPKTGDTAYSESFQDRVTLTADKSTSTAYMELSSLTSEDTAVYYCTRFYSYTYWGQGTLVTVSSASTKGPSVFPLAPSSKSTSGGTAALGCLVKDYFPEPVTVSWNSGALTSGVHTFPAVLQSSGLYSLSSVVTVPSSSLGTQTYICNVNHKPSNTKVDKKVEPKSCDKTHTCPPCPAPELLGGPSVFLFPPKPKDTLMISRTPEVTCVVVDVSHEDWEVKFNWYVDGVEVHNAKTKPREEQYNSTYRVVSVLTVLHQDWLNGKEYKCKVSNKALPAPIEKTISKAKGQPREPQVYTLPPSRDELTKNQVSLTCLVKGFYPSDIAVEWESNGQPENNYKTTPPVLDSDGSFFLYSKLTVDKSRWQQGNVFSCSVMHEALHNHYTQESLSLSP
# light: B1 light
# notes: as for B25
# B50: GpH7-B3 variant Q295_04F/GpL16-k0 (antibody, human IgG1, kappa)
# heavy: not shown
# light: B1 light
# notes: as for B25
# B51: GpH7-B3 variant Q295_13S/GpL16-k0 (antibody, human IgG1, kappa)
# heavy: not shown
# light: B1 light
# notes: as for B25
# B52: GpH7-B3 variant S298_16H/GpL16-k0 (antibody, human IgG1, kappa)
# heavy: not shown
# light: B1 light
# notes: as for B25
# B53: GpH7-B3 variant S298_14T/GpL16-k0 (antibody, human IgG1, kappa)
# heavy: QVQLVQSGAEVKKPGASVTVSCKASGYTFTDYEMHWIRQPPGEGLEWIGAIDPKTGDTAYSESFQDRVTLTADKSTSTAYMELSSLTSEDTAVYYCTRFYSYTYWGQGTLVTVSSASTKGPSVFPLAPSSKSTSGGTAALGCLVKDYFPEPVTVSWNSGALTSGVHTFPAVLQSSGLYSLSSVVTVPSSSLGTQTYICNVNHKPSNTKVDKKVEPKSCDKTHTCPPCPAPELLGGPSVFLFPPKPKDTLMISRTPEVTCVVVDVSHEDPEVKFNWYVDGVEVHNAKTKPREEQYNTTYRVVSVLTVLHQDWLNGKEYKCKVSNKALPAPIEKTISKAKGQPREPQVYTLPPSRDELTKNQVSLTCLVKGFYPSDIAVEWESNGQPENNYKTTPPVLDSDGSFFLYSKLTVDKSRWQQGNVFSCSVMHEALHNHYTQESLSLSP
# light: B1 light
# notes: as for B25
# B54: GpH7-B3 variant S324_03V/GpL16-k0 (antibody, human IgG1, kappa)
# heavy: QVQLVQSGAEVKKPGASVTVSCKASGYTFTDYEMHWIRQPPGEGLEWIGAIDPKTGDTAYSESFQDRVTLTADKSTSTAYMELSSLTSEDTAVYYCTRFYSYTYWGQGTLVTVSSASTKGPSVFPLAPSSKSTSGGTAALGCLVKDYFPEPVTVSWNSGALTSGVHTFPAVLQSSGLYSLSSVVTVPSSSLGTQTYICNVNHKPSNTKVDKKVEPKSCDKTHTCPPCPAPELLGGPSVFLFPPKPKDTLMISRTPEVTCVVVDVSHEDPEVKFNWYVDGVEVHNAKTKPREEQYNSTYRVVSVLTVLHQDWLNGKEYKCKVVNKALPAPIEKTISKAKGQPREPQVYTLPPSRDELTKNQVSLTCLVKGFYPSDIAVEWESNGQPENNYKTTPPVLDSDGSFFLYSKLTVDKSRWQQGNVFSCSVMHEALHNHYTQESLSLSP
# light: B1 light
# notes: as for B25
# B55: GpH7-B3 variant S298_15Y/GpL16-k0 (antibody, human IgG1, kappa)
# heavy: not shown
# light: B1 light
# notes: as for B25
# B56: GpH7-B3 variant S337_01G/GpL16-k0 (antibody, human IgG1, kappa)
# heavy: not shown
# light: B1 light
# notes: as for B25
# B57: GpH7-B3 variant S324_08L/GpL16-k0 (antibody, human IgG1, kappa)
# heavy: not shown
# light: B1 light
# notes: as for B25
# B58: GpH7-B3 variant S239_09D/GpL16-k0 (antibody, human IgG1, kappa)
# heavy: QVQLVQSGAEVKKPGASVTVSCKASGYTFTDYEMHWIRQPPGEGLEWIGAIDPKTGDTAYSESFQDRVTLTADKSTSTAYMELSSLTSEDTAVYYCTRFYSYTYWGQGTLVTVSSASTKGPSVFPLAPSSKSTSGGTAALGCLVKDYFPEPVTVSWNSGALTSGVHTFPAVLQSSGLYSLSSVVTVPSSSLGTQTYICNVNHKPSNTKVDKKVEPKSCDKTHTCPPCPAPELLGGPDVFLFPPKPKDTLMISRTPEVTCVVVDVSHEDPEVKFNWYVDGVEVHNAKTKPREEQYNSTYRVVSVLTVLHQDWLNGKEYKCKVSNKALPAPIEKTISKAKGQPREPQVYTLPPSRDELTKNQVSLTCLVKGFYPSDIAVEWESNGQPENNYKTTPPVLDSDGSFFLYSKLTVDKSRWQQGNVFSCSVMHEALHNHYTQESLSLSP
# light: B1 light
# notes: as for B25
# B59: GpH7-B3 variant S324_14T/GpL16-k0 (antibody, human IgG1, kappa)
# heavy: not shown
# light: B1 light
# notes: as for B25
# Biological target: T1, FcγRIa (human, UniProt P12314 16-292)
# T1 construct: extracellular domain; soluble extracellular domain with C-terminal His tag, expressed in FreeStyle293 cells; also called FcgRI; FcgRIa
# T1 sequence (P12314 16-292): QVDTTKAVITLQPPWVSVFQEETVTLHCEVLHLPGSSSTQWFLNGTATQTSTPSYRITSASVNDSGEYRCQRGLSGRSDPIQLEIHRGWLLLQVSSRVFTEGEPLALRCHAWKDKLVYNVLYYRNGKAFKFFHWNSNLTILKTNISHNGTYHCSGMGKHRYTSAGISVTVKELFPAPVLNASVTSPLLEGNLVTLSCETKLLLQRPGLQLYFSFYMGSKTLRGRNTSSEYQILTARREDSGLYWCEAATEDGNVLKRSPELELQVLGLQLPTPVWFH
# Assay: SPR (Biacore), captured antibody, FcγRIa analyte; relative to HeCon Ab GpH7-A5/GpH7-B3/GpL16-k0 = 100
row,He/Con_1a,Binder
1,104 % of control,B1
2,109 % of control,B2
3,103 % of control,B3
4,102 % of control,B4
5,104 % of control,B5
6,103 % of control,B6
7,103 % of control,B7
8,109 % of control,B8
9,106 % of control,B9
10,106 % of control,B10
11,106 % of control,B11
12,105 % of control,B12
13,107 % of control,B13
14,104 % of control,B14
15,103 % of control,B15
16,108 % of control,B16
17,108 % of control,B17
18,105 % of control,B18
19,110 % of control,B19
20,106 % of control,B20
21,103 % of control,B21
22,104 % of control,B22
23,108 % of control,B23
24,105 % of control,B24

# Biological target: T1, FcγRIa
# Assay: SPR (Biacore), captured antibody, FcγRIa analyte; relative to HoCon Ab GpH7-B3/GpL16-k0 = 100
row,Ho/Con_1a,Binder
1,101 % of control,B25
2,104 % of control,B26
3,103 % of control,B27
4,101 % of control,B28
5,102 % of control,B29
6,105 % of control,B30
7,103 % of control,B31
8,102 % of control,B32
9,102 % of control,B33
10,101 % of control,B34
11,104 % of control,B35
12,108 % of control,B36
13,103 % of control,B37
14,106 % of control,B38
15,111 % of control,B39
16,102 % of control,B40
17,106 % of control,B41
18,106 % of control,B42

row,Ho/Con_1a,Binder
1,105 % of control,B43
2,101 % of control,B44
3,101 % of control,B45
4,101 % of control,B46
5,104 % of control,B47
6,112 % of control,B48
7,102 % of control,B49
8,100 % of control,B50
9,101 % of control,B51
10,107 % of control,B52
11,106 % of control,B53
12,103 % of control,B54
13,103 % of control,B55
14,102 % of control,B56
15,103 % of control,B57
16,101 % of control,B58
17,112 % of control,B59

# Source: US20150344570A1 (published 2015)
